Experimental data published in patent US20210255174.

Tests used:
[1] = test system: Control peptide #112: [5-Fam]TRIDEANQRATK[DABCYL]-Hex
[2] = test system: Control peptide #113: [4-Mu]TRIDEANQRATK[DABCYL]-Hex

## Trypsin
[1]
  KM: 3.75 µM
[2]
  KM: 13.3 µM
